From patent US20230192789A1, “STRUCTURALLY-STABILIZED AND HDMX-SELECTIVE P53 PEPTIDES AND USES THEREOF” (Dana-Farber Cancer Institute, Inc., priority 2020, published 2023)
Bridges are numbered along the chain shown (N, C = ends). [ ]: non-standard residue; d: D form. The star is where a group is joined. Biotin = O=C1N[C@H]2[C@H](CS[C@H]2CCCCC(=O)*)N1; R8 = C=CCCCCCC[C@@](C)(N)C(=O)O; S5 = C=CCCC[C@](C)(N)C(=O)O

What follows are binders tested against T1, recombinant HDM2 (amino acids 17-125 of SEQ ID NO:103) (human, UniProt Q00987 17-125) (assay: streptavidin pull-down of biotinylated peptide with recombinant HDM2 and HDMX (1:1 mixture per paragraph 301), western blot).
T1 construct: also called MDM2; not shown: thrombin cleavage site (pET28a vector)
T1 sequence (Q00987 other isoform, or with tags, fused parts or gaps): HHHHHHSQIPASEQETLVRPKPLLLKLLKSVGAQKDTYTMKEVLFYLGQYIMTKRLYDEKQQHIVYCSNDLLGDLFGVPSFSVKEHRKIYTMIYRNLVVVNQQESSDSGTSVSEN

Row | Binder | binding result
1 | Biotin-LTF[R8]EYWAQD[S5]SAA-NH2 (staple 4-11; SMILES CC(C)C[C@H](NC(=O)CCCC[C@@H]1SC[C@@H]2NC(=O)N[C@@H]21)C(=O)N[C@H](C(=O)N[C@@H](Cc1ccccc1)C(=O)N[C@]1(C)CCCCCCC=CCCC[C@@](C)(C(=O)N[C@@H](CO)C(=O)N[C@@H](C)C(=O)N[C@@H](C)C(N)=O)NC(=O)[C@H](CC(=O)O)NC(=O)[C@H](CCC(N)=O)NC(=O)[C@H](C)NC(=O)[C@H](Cc2c[nH]c3ccccc23)NC(=O)[C@H](Cc2ccc(O)cc2)NC(=O)[C@H](CCC(=O)O)NC1=O)[C@@H](C)O) [ATSP-7041 B26D] | no binding
2 | Biotin-LTF[R8]EYWAQG[S5]SAA-NH2 (staple 4-11; SMILES CC(C)C[C@H](NC(=O)CCCC[C@@H]1SC[C@@H]2NC(=O)N[C@@H]21)C(=O)N[C@H](C(=O)N[C@@H](Cc1ccccc1)C(=O)N[C@]1(C)CCCCCCC=CCCC[C@@](C)(C(=O)N[C@@H](CO)C(=O)N[C@@H](C)C(=O)N[C@@H](C)C(N)=O)NC(=O)CNC(=O)[C@H](CCC(N)=O)NC(=O)[C@H](C)NC(=O)[C@H](Cc2c[nH]c3ccccc23)NC(=O)[C@H](Cc2ccc(O)cc2)NC(=O)[C@H](CCC(=O)O)NC1=O)[C@@H](C)O) [ATSP-7041 B26G] | no binding
3 | Biotin-LTF[R8]EYWAQH[S5]SAA-NH2 (staple 4-11; SMILES CC(C)C[C@H](NC(=O)CCCC[C@@H]1SC[C@@H]2NC(=O)N[C@@H]21)C(=O)N[C@H](C(=O)N[C@@H](Cc1ccccc1)C(=O)N[C@]1(C)CCCCCCC=CCCC[C@@](C)(C(=O)N[C@@H](CO)C(=O)N[C@@H](C)C(=O)N[C@@H](C)C(N)=O)NC(=O)[C@H](Cc2c[nH]cn2)NC(=O)[C@H](CCC(N)=O)NC(=O)[C@H](C)NC(=O)[C@H](Cc2c[nH]c3ccccc23)NC(=O)[C@H](Cc2ccc(O)cc2)NC(=O)[C@H](CCC(=O)O)NC1=O)[C@@H](C)O) [ATSP-7041 B26H] | no binding
4 | Biotin-LTF[R8]EYWAQK[S5]SAA-NH2 (staple 4-11; SMILES CC(C)C[C@H](NC(=O)CCCC[C@@H]1SC[C@@H]2NC(=O)N[C@@H]21)C(=O)N[C@H](C(=O)N[C@@H](Cc1ccccc1)C(=O)N[C@]1(C)CCCCCCC=CCCC[C@@](C)(C(=O)N[C@@H](CO)C(=O)N[C@@H](C)C(=O)N[C@@H](C)C(N)=O)NC(=O)[C@H](CCCCN)NC(=O)[C@H](CCC(N)=O)NC(=O)[C@H](C)NC(=O)[C@H](Cc2c[nH]c3ccccc23)NC(=O)[C@H](Cc2ccc(O)cc2)NC(=O)[C@H](CCC(=O)O)NC1=O)[C@@H](C)O) [ATSP-7041 B26K] | no binding
5 | Biotin-LTF[R8]EYWAQN[S5]SAA-NH2 (staple 4-11; SMILES CC(C)C[C@H](NC(=O)CCCC[C@@H]1SC[C@@H]2NC(=O)N[C@@H]21)C(=O)N[C@H](C(=O)N[C@@H](Cc1ccccc1)C(=O)N[C@]1(C)CCCCCCC=CCCC[C@@](C)(C(=O)N[C@@H](CO)C(=O)N[C@@H](C)C(=O)N[C@@H](C)C(N)=O)NC(=O)[C@H](CC(N)=O)NC(=O)[C@H](CCC(N)=O)NC(=O)[C@H](C)NC(=O)[C@H](Cc2c[nH]c3ccccc23)NC(=O)[C@H](Cc2ccc(O)cc2)NC(=O)[C@H](CCC(=O)O)NC1=O)[C@@H](C)O) [ATSP-7041 B26N] | no binding
6 | Biotin-LTF[R8]EYWAQP[S5]SAA-NH2 (staple 4-11; SMILES CC(C)C[C@H](NC(=O)CCCC[C@@H]1SC[C@@H]2NC(=O)N[C@@H]21)C(=O)N[C@H](C(=O)N[C@@H](Cc1ccccc1)C(=O)N[C@]1(C)CCCCCCC=CCCC[C@@](C)(C(=O)N[C@@H](CO)C(=O)N[C@@H](C)C(=O)N[C@@H](C)C(N)=O)NC(=O)[C@@H]2CCCN2C(=O)[C@H](CCC(N)=O)NC(=O)[C@H](C)NC(=O)[C@H](Cc2c[nH]c3ccccc23)NC(=O)[C@H](Cc2ccc(O)cc2)NC(=O)[C@H](CCC(=O)O)NC1=O)[C@@H](C)O) [ATSP-7041 B26P] | no binding
7 | Biotin-LTF[R8]EYWAQQ[S5]SAA-NH2 (staple 4-11; SMILES CC(C)C[C@H](NC(=O)CCCC[C@@H]1SC[C@@H]2NC(=O)N[C@@H]21)C(=O)N[C@H](C(=O)N[C@@H](Cc1ccccc1)C(=O)N[C@]1(C)CCCCCCC=CCCC[C@@](C)(C(=O)N[C@@H](CO)C(=O)N[C@@H](C)C(=O)N[C@@H](C)C(N)=O)NC(=O)[C@H](CCC(N)=O)NC(=O)[C@H](CCC(N)=O)NC(=O)[C@H](C)NC(=O)[C@H](Cc2c[nH]c3ccccc23)NC(=O)[C@H](Cc2ccc(O)cc2)NC(=O)[C@H](CCC(=O)O)NC1=O)[C@@H](C)O) [ATSP-7041 B26Q] | no binding
8 | Biotin-LTF[R8]EYWAQR[S5]SAA-NH2 (staple 4-11; SMILES CC(C)C[C@H](NC(=O)CCCC[C@@H]1SC[C@@H]2NC(=O)N[C@@H]21)C(=O)N[C@H](C(=O)N[C@@H](Cc1ccccc1)C(=O)N[C@]1(C)CCCCCCC=CCCC[C@@](C)(C(=O)N[C@@H](CO)C(=O)N[C@@H](C)C(=O)N[C@@H](C)C(N)=O)NC(=O)[C@H](CCCNC(=N)N)NC(=O)[C@H](CCC(N)=O)NC(=O)[C@H](C)NC(=O)[C@H](Cc2c[nH]c3ccccc23)NC(=O)[C@H](Cc2ccc(O)cc2)NC(=O)[C@H](CCC(=O)O)NC1=O)[C@@H](C)O) [ATSP-7041 B26R] | no binding
9 | Biotin-LTF[R8]EYWAQS[S5]SAA-NH2 (staple 4-11; SMILES CC(C)C[C@H](NC(=O)CCCC[C@@H]1SC[C@@H]2NC(=O)N[C@@H]21)C(=O)N[C@H](C(=O)N[C@@H](Cc1ccccc1)C(=O)N[C@]1(C)CCCCCCC=CCCC[C@@](C)(C(=O)N[C@@H](CO)C(=O)N[C@@H](C)C(=O)N[C@@H](C)C(N)=O)NC(=O)[C@H](CO)NC(=O)[C@H](CCC(N)=O)NC(=O)[C@H](C)NC(=O)[C@H](Cc2c[nH]c3ccccc23)NC(=O)[C@H](Cc2ccc(O)cc2)NC(=O)[C@H](CCC(=O)O)NC1=O)[C@@H](C)O) [ATSP-7041 B26S] | no binding
10 | Biotin-LTF[R8]EYWAQT[S5]SAA-NH2 (staple 4-11; SMILES CC(C)C[C@H](NC(=O)CCCC[C@@H]1SC[C@@H]2NC(=O)N[C@@H]21)C(=O)N[C@H](C(=O)N[C@@H](Cc1ccccc1)C(=O)N[C@]1(C)CCCCCCC=CCCC[C@@](C)(C(=O)N[C@@H](CO)C(=O)N[C@@H](C)C(=O)N[C@@H](C)C(N)=O)NC(=O)[C@H]([C@@H](C)O)NC(=O)[C@H](CCC(N)=O)NC(=O)[C@H](C)NC(=O)[C@H](Cc2c[nH]c3ccccc23)NC(=O)[C@H](Cc2ccc(O)cc2)NC(=O)[C@H](CCC(=O)O)NC1=O)[C@@H](C)O) [ATSP-7041 B26T] | no binding
11 | Biotin-LTF[R8]EYWAQV[S5]SAA-NH2 (staple 4-11; SMILES CC(C)C[C@H](NC(=O)CCCC[C@@H]1SC[C@@H]2NC(=O)N[C@@H]21)C(=O)N[C@H](C(=O)N[C@@H](Cc1ccccc1)C(=O)N[C@]1(C)CCCCCCC=CCCC[C@@](C)(C(=O)N[C@@H](CO)C(=O)N[C@@H](C)C(=O)N[C@@H](C)C(N)=O)NC(=O)[C@H](C(C)C)NC(=O)[C@H](CCC(N)=O)NC(=O)[C@H](C)NC(=O)[C@H](Cc2c[nH]c3ccccc23)NC(=O)[C@H](Cc2ccc(O)cc2)NC(=O)[C@H](CCC(=O)O)NC1=O)[C@@H](C)O) [ATSP-7041 B26V] | no binding
12 | Biotin-LTF[R8]EYWAQW[S5]SAA-NH2 (staple 4-11; SMILES CC(C)C[C@H](NC(=O)CCCC[C@@H]1SC[C@@H]2NC(=O)N[C@@H]21)C(=O)N[C@H](C(=O)N[C@@H](Cc1ccccc1)C(=O)N[C@]1(C)CCCCCCC=CCCC[C@@](C)(C(=O)N[C@@H](CO)C(=O)N[C@@H](C)C(=O)N[C@@H](C)C(N)=O)NC(=O)[C@H](Cc2c[nH]c3ccccc23)NC(=O)[C@H](CCC(N)=O)NC(=O)[C@H](C)NC(=O)[C@H](Cc2c[nH]c3ccccc23)NC(=O)[C@H](Cc2ccc(O)cc2)NC(=O)[C@H](CCC(=O)O)NC1=O)[C@@H](C)O) [ATSP-7041 B26W] | no binding
13 | Biotin-LTF[R8]EYWAQY[S5]SAA-NH2 (staple 4-11; SMILES CC(C)C[C@H](NC(=O)CCCC[C@@H]1SC[C@@H]2NC(=O)N[C@@H]21)C(=O)N[C@H](C(=O)N[C@@H](Cc1ccccc1)C(=O)N[C@]1(C)CCCCCCC=CCCC[C@@](C)(C(=O)N[C@@H](CO)C(=O)N[C@@H](C)C(=O)N[C@@H](C)C(N)=O)NC(=O)[C@H](Cc2ccc(O)cc2)NC(=O)[C@H](CCC(N)=O)NC(=O)[C@H](C)NC(=O)[C@H](Cc2c[nH]c3ccccc23)NC(=O)[C@H](Cc2ccc(O)cc2)NC(=O)[C@H](CCC(=O)O)NC1=O)[C@@H](C)O) [ATSP-7041 B26Y] | no binding
